Data as given in patent US20110293610A1 (published 2011).

Experiments:
TNF-beta = biological target: T1, TNF-beta (human, UniProt P01374 35-205); assay: phage ELISA
T1 construct: also called TNFβ; Tumour Necrosis Factor-beta
T1 sequence (looked up): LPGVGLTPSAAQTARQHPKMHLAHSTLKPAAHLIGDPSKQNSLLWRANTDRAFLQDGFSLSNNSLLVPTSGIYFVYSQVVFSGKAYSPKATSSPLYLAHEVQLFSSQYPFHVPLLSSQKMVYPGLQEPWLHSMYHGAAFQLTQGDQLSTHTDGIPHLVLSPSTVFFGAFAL

Fas ligand = biological target: T2, Fas ligand (human, UniProt P48023 134-281, limits assumed); assay: phage ELISA
T2 sequence (looked up): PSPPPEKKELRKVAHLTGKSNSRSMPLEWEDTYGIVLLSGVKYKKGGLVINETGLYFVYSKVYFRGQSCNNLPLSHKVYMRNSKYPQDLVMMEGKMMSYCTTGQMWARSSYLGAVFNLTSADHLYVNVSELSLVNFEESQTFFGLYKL

[1] = biological target: T3, mouse B Lymphocyte Stimulator (mouse, UniProt Q9WU72 127-309, limits assumed); assay: phage ELISA
T3 construct: also called murine B Lymphocyte Stimulator; immobilized mouse B Lymphocyte Stimulator
T3 sequence (Q9WU72 127-309 limits assumed): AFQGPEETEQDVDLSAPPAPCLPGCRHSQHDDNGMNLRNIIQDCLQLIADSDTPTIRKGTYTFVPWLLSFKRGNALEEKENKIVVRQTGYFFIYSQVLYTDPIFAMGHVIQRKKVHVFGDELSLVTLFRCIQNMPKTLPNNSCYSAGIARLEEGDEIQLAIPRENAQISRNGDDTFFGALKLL

[2] = biological target: T4, membrane-bound B Lymphocyte Stimulator on U937 plasma membrane preparations (human, UniProt Q9Y275 1-285); assay: phage ELISA
T4 construct: Natural protein in plasma membrane fractions of the human cell line U937 coated on ELISA plates; also called U937 plasma membranes; U937 membranes

TRAIL = biological target: T5, TRAIL (human, UniProt P50591 114-281); assay: phage ELISA
T5 construct: also called TNF-related apoptosis inducing ligand
T5 sequence (P50591 114-281 limits assumed): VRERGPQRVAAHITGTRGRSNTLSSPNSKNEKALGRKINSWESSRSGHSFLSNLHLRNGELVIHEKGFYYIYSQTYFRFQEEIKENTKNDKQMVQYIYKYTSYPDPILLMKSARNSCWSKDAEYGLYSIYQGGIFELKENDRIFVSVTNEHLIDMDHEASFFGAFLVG

TNF-alpha = biological target: T6, TNF-alpha (human, UniProt P01375 77-233); assay: phage ELISA
T6 construct: also called TNFα; TNF-α
T6 sequence (P01375 77-233 limits assumed): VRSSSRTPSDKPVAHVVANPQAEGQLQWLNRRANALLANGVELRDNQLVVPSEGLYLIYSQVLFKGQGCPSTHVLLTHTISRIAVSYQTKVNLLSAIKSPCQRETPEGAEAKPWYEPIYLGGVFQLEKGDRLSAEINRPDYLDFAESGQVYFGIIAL

[3] = biological target: T7, B Lymphocyte Stimulator, soluble form (human) (human, UniProt Q9Y275 134-285, biotinylated with NHS-biotin where used as biotinylated B Lymphocyte Stimulator); assay: phage competition ELISA
T7 construct: Coated on plastic, captured on streptavidin plates, amine-coupled to a CM5 chip or free in solution, depending on the assay; also called BLyS; immobilized B Lymphocyte Stimulator

[4] = biological target: T7, B Lymphocyte Stimulator, soluble form …; assay: phage ELISA
Bovine serum albumin = biological target: T8, Bovine serum albumin (bovine, UniProt P02769 25-607); assay: phage ELISA
T8 construct: also called BSA
T8 sequence (P02769 25-607 limits assumed): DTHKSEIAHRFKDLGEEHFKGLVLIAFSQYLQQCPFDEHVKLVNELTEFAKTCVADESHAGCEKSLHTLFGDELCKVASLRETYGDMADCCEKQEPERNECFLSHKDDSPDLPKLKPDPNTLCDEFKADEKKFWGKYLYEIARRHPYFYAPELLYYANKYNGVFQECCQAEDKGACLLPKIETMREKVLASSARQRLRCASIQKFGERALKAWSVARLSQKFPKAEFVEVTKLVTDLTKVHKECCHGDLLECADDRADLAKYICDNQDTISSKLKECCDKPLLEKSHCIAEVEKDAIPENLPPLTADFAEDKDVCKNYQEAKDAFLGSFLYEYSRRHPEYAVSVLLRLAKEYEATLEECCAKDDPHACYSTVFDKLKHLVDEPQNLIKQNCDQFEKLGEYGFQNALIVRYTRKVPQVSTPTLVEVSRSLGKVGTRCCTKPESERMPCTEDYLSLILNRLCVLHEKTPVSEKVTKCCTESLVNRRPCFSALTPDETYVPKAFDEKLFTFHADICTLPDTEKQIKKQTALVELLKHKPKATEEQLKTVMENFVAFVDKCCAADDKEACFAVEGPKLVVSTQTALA

[5] = biological target: T9, HIS-tagged B Lymphocyte Stimulator (human, UniProt Q9Y275 71-285); assay: BIAcore, purified scFv over low density HIS-BLyS surface
T9 construct: Expressed in E. coli; also called HIS-B Lymphocyte Stimulator; histidine-tagged B Lymphocyte Stimulator; not shown: histidine tag from the pQE9 vector
Method: The chip containing the low density HIS-B Lymphocyte Stimulator surface was inserted into the BIAcore. […] The dilution series was then injected sequentially over the blank control (flow cell 1) and low density HIS-B Lymphocyte Stimulator surface (flow cell 2) using the following program: […]

LIGHT = LIGHT (human, UniProt O43557 74-240, limits assumed); assay: phage ELISA
LIGHT, sequence (O43557 74-240 limits assumed): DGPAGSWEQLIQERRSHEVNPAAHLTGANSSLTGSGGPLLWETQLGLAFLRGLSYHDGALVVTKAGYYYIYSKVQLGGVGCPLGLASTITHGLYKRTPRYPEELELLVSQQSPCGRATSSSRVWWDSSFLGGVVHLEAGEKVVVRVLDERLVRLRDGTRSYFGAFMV

B1: I008C03 (scFv)
scFv: QMQLVRSGGGVVQPGRSLRLSCAASGFTFSSYGMHWVRQAPGKGLEWVSVTYSGGNTNYADSVRGRFTISRDNSKNTLYLQMNSLRAEDTAVYYCAREGSYDILTGYYVGVGRMDVWGKGTLVTVSSGGGGSGGGGSGGGGSSELTQDPAVSVALGQTVRITCQGDSLRSYYTNWFQQKPGQAPLLVVYAKNKRPSGIPDRFSGSSSGNTASLTITGAQAEDEADYYCNSRDSSGNHVVFGGGTKLTVLG
B1: no binding (TNF-beta); no binding (Fas ligand); no binding [1]. B1: binds [2]; no binding (TRAIL); no binding (TNF-alpha). B1: binds [3].

B2: I008D05 (scFv)
scFv: GVQLVQSGAEVKKPGSSVKISCKASGVTFNDYAFSWVRQAPGQGLEWVGGIIPKFGKAKYAQKFQGRLTISGDKSTSTAYMELRSLTSDDTAVYYCARATYDPLTGYSFDGFDIWGQGTMVTVSSGGGGSGGGGSGGGGSQSVLTQPASVSGSPGQSITISCTGTSSDVGGYNYVSWYQQHPGKAPKLMIYEGSKRPSGVSNRFSGSKSGNPASLTISGLQAEDEADYYCSSYTTRSTRVFGGGTKLTVLG
notes: also called 1008D05
B2: binds [2]; binds [4]; no binding (TNF-alpha). B2: no binding (Bovine serum albumin).

B3: I082G02 (scFv)
scFv: KVQLVESGGGVVQPGRSLRLSCVTSGFTFSSYGMHWVRQAPGKGLEWVAGISYDGAKEYYGDPVKGRFTISRDNTKKTLNLQMNSLRAEDTAVYYCARDGYRTNDALDIWGQGTLATVSSGGGGSGGGGSGGGGSDIQMTQSPSTLSASIGDRVTITCRASEGIYHWLAWYQQKPGKAPKLLIYKASSLASGAPSRFSGSGSGTDFTLTISSLQPDDFATYYCQQYSNYPLTFGGGTKLEIKR
B3 gave a Kd [5] of 6 nM.

B4: I006E07 (scFv)
scFv: QVQLQQSGAEEKKPGASVKVSCKASGYTFTSYAMHWVRQAPGQRLEWMGWINAGNGNTKYSQKFQGRVAITRDTSASTAYMELSSLRSEDTAVYYCARADYDILTGYSPLTYGMDVWGRGTLVTVSSGGGGSGGGGSGGGGSDIQMTQSPSTLSASIGDRVTITCRASEGIYHWLAWYQQKPGKAPKLLIYKASSLASGAPSRFSGSGSGTDFTLTISSLQPDDFATYYCQQYSNYPLTFGGGTKLEIKR
B4: binds [2]; binds [4]; no binding (TNF-alpha). B4: no binding (Bovine serum albumin).

B5: I082H08 (scFv)
scFv: EVQLVESGGGLVQPGGSLRLSCAASGFTFSDYGMHWVRQRPGKGLEWIAFIGSDGSNKYYGDTVKGRFTISRDNAKNSLYLQMNSLRAEGTAVYYCARDWDMDVWGQGTMVTVSSGGGGSGGGGSGGGGSSHVILTQPRSVSGSPGQSVTISCTGTSSDVGGYHYVSWYQQHPGKAPRLMIYEVTKRPSGVSNRFSGSKSGNTASLTISGVQAEDEADYYCSSYTSASTVIFGGGTKLTVLG
B5 showed a Kd [5] of 1 nM.

B6: I016H07 (scFv)
scFv: GVQLVQSGAEVKKPGASVKVSCKASGYTFTHYAINWLRQAPGQRPEWMGTINTGNGNTKYSQNFQGRLTITRDTSASTVNMELSSLRSEDTAVYYCAGGYHDPLTSYNYNWFDPWGQGTMVTVSSGGGGSGGGGSGGGGSSELTQDPAVSVALGQTVRITCQGDSLRSYYTNWFQQKPGQAPLLVVYAKNKRPSGIPDRFSGSSSGNTASLTITGAQAEDEADYYCHSRDSSGNHVLFGGGTKLTVLG
B6: no binding (TNF-beta); no binding (Fas ligand); no binding [1]. B6: binds [2]; no binding (TRAIL); no binding (TNF-alpha). B6: binds [3].

B7: I075A02 (scFv)
scFv: QVQLVQSGAEVKKPGSSVKVSCRASGGSFNHAISWVRQAPGRGLEWMGGILPMYGTANYAQKFQGRVTITADKLTNTVYMDLSRLRYEDTAVYYCARELGLSIVGATTGALDMWGRGTLVTVSSGGGGSGGGGSGGGGSAQSVVTQPPSASGTPGQRVTVSCSGGRSNIGSNTVSWYQQLPGTAPKLLIYSNDERPSGVPDRFSGSNSGTSASLAISGLQSEDEADYYCAAWDDSLNGVAFGGGTKLTVLG
B7: no binding (TNF-beta); no binding (LIGHT); no binding (TRAIL). B7: binds [4]; no binding (TNF-alpha); no binding (Bovine serum albumin).

B8: I079F11 (scFv)
scFv: QVQLVQSGGGLVKPGGSLRLSCAASGFTFSSYSMNWVRQAPGKGLEWVAVVSSDGGNKYYADSVKGRFTISRDNSKNTVYLQMNSLRADDTAVYYCAKTGSGFDYWGRGTLVTVSSGGGGSGGGGSGGGGSDIQMTQSPSTLSASIGDRVTITCRASEGIYHWLAWYQQKPGKAPKLLIYKASSLASGAPSRFSGSGSGTDFTLTISSLQPDDFATYYCQQYSNYPLTFGGGTKLEIKR
B8 gave a Kd [5] of 5 nM.

B9: I099D03 (scFv)
scFv: QVQLVQSGAEVKKPGASVRVSCKSSGYTFTNYGISWVRQAPGQGLEWMGWISNNNGKTYYAQKVQGRVTMTTDTSTSTDYMELRGLRSDDTAIYYCARDNGGGTIGFDYWGRGTLVTVSSGGGGSGGGGSGGGGSAQAVLTQPSSVSGAPGQRVTMSCTGSSSNIGAGYDVHWYQQLPGTAPKLLIYDNTNRPSGVPDRFSGSRSGTSASLAITGLQAEDEADYFCQSYDITLSAVFGTGTKVTVLG
Work on B9 yielded a Kd [5] of 4 nM.

B10: I016F04 (scFv)
scFv: QVQLQQSGSELKKPGASVKVSCKVSGYSLTKMSMHWVRQSPGEGLEWVGGIDPETRQPVYAQKFQGRVTITKDTSASAAYMELSSLGSEDTALYYCARATYDPLTGYSFDGFDIWGQGTLVTVSSGGGGSGGGGSGGGGSQSVLTQPASVSGSPGQSITISCTGTSSDVGGYNYVSWYQQHPGKAPKLMIYEGSKRPSGVSNRFSGSKSGNTASLTISGLQAEDEADYYCSSYTTRSTRVFGGGTKLTVLG
B10: no binding (Fas ligand); binds [2]; no binding (TRAIL). B10: no binding (TNF-alpha); no binding (Bovine serum albumin); binds [3].

B11: I037E07 (scFv)
scFv: QVQLVQSGAEVKKPGASVKVSCKASGYTFTNYGITWVRQAPGQGLEWMGWISAYNGNRNYAQKLQGRVTMTTDTSTSTAYMELRSLRSDDTAVYYCVRDGIDILLVPAALMDVWGRGTMVTVSSGGGGSGGGGSGGGGSQSVLTQPASVSGSPGQSITISCTGTSSDVGGYNYVSWYQQHPGKAPKLMIYEGSKRPSGVSNRFSGSKSGNTASLTISGLQAEDEADYYCSSYTTRSTRVFGGGTKLTVLG
B11: no binding (TNF-beta); no binding (Fas ligand); no binding [1]. B11: binds [2]; no binding (TRAIL); no binding (TNF-alpha). B11: binds [3].

B12: I037E12 (scFv)
scFv: EVQLVQSGAEVKKPGASVKVSCKASGYTFTNYGITWVRQAPGQGLEWMGWISAYNGNRNYAQKLQGRVTMTTDTSTSTAYMELRSLRSDDTAVYYCVRDGIDILLVPAALMDVWGKGTLVTVSSGGGGSGGGGSGGGGSQSVLTQPASVSGSPGQSITISCTGTSSDVGGYNYVSWYQQHPGKAPKLMIYEGNKRPSGVSNRFSGSKSGNTASLTISGLQAEDEADYYCSSYTTRSTRVFGGGTKLTVLG
B12: no binding (TNF-beta); no binding (Fas ligand); no binding [1]. B12: binds [2]; no binding (TRAIL); no binding (TNF-alpha). B12: binds [3].

B13: I079E02 (scFv)
scFv: QVQLVQSGAEVKKPGSSVKVSCKASGGTFSSYAISWVRQAPGQGLEWMGGIIPIFGTANYAQKFQGRVTITADKSTSTAYMELSSLRSDDTAVYYCARDSGSYYYDAFDIWGKGTMVTVSSGGGGSGGGGSGGGGSDIVMTQSPSTLSASVGDRVTITCRASQGISSWLAWYQQKPGKAPKLLIYAASSLQSGVPSRFSGSGSGTDFTLTISSLQPEDFATYYCQQANSFPLTFGGGTKVEIKR
Work on B13 yielded a Kd [5] of 10 nM.
